Measured values: patent publication US20050281914
Like-named read-outs stand apart in the source and are kept apart here.

T1: αS1-casein (f1-9)
T1 sequence: RPKHPIKHQ

T2: αS1-casein (f1-9)
T2 chain: RPKHPIKHQ

T3: β-casein (f193-209)
T3 chain: YQEPVLGPVRGPFPIIV

T4: β-casein (f193-209)
T4 sequence: YQEPVLGPVRGPFPIIV

B1: Lactobacillus helveticus CNRZ32 PepE expressed as PpepO3:pepE translational fusion in Lactococcus lactis LM0230 (pSUW666) (enzyme, UniProt P94870 1-438, looked up)
Aminopeptidase E: MAHELTVQELEKFSADFNKNPKNKVVARAAQRSGVLEASYNDRVQSELTRVFSTELDTDNVTNQKHSGRCWLFATLNVLRHEFGKKYKAKDFTFSQAYNFFWDKIERANMFYNRILDSADMPLDSRQVKTDLDFAGTDGGQFQMAAALVEKYGVVPSYAMPETFNTNDTTGFATALGDKLKKDALVLRKLKQEGKDDEIKKTREKFLSEVYQMTAIAVGEPPKKFDLEYRDDDKKYHLEKDLTPLEFLHKYLGGVDFDDYVVLTNAPDHEYDKLYGLPAEDNVSGSIRIKLLNVPMEYLTAASIAQLKDGEAVWFGNDVLRQMDRKTGYLDTNLYKLDDLFGVDLKMSKADRLKTGVGEVSHAMTLVGVDEDNGEVRQWKVENSWGDKSGAKGYYVMNNEWFNDYVYEVVVHKKYLTDKQKELAEGPITDLPAWDSLA
modifications: PpepO3 fusion junction residues; expressed in Lactococcus
B2: Lactobacillus helveticus CNRZ32 endopeptidase PepO3 (protein)
chain: MTVRGGAGDITEADLSARPQDNLYLAVNSEWLKNAKIPSDRSRTSSFDGIDLNIEKELMQDFADFADGKKDLPDVPNFEKAVALYKIAKDFDRRNADGADPIQADLHEILGLRNFADFTLKAADFFKNGFPMPFDFSVEADMKNTKIHSLQFGGPGTFLPDTTTYKTPAAEKLLAVLKEQSINLLTMSGISKSEAEDYAEKALAYDAKIAKVVKSAEEWADYPATYNPISRDDFADKFKSFKMDYFLGELFAKKPERVINTEPRYLDYAEELLNEDVFAEIKAWMLVKFVNGVASSLSQEFREAAFPFSQALSGQPELPSGVKQAYHIANSDFSEVVGVYYGQTYFGAEAKADVTDMIHKMLDVYEKRIRENSWLSQATKDKAIVKLRALILKIGYPDKIEEIYDRLTVDPEASLYANEAQFGREQIKYNLEKLDQDVDRSVWLMPGNLVNACYDPQRNDLTFPAAILQKPFYDLKQSRSLNYGGIGVVIAHEISHAFDNNGAQFDEFGNMKNWWTEKDFAEFKKRTQAEIDLFDGIKYGPVTLNGKQIVSENIADQGGLTAAVEANKGEDGNMKELFENFARVWATKQLPESIKTQVSVDVHAPGPERANVQSQCQEEFYKAFDVTEHDGMWLDPEKRVVIW
B3: Lactobacillus helveticus CNRZ32 endopeptidase PepE2 (protein)
chain: MKHELTMAEIAKFQQEYKKEPQNRVAELAVVNNGVQKASFNTEGIRKLNRTFSIEIPTDNVTDQKQSGRCWLFAALNTLRHGFAKKYNTKNFTFSQNYLFFWDRVERANIFFDNILNTADKPLGDRTVHTYMQGPDADGGQWAMAVSLIRKYGLVPTYAQEESFTANNTAAFNRALNMKLREDGLILRKLAKENKTDEIETKRQEFLSEVYRMAVIAFGEPVQKFDLEFKDDDGKYHFDGDLTPLDFFHNYFTDDLDDYIVLFNAPDHEFDKLYALPFEDNVEGGTPVQFLNTEIDNLKEAAIKQLEAGETIWFGCDVGKDSDRQKGILSKGLYQTDTIFNIETKLSKKERLQTGASGSTHAMTLVGVDVVDGKPRQWKIENSWGAKVGEKGYFVMDDDWFNEYLFKVVVKKQYVPDKLVKIWEGEATPVEAWDSMA
B4: Lactobacillus helveticus CNRZ32 endopeptidase PepO2 (protein)
chain: MNLAKIRGGAGDITKPDLNARIQDNLYLAVNSDWISKAKIPADRPLISSFSEIDLKIEKELMNDLADFASGKKALPDIPNFDKAIEVYKLAKDFAKRDADGFQPAQADLETLINLKDVDDVKQNLAKLLLRFSFPFLFEVEPDRKNTKTNSLSFDRNSLILPDTTSYQSPSAKQLLDVWQKQTENLLKMAGVEEAAAKKYATDAIALDAKIVKVAKSAEERADDVALYNPIKTNEFEEKTSSLNLGQLLEQLFEKKPNYVVVSEPKFLDHFNELFNQESFDELKGWLISIFINKAAAFLSEEFRQAAFPFKQATYGQKELPSQEKEAYYKANNLFDDVIGVYYGRTYFGEDAKADVEDMIHRMIDVYEQRITNNEWLSPATKEKAITKLRALVLKIGYPNKIDHVYDLFQVTPANEGGNLYSNQANIREVSLKHNFDKLYKPVDRSEWYMPGNLINACYDPQRNDITFPAAILEAPFYDINASRATNYGGIGVVIAHEISHAFDNNGAKYDEFGNMKNWWTKEDFAEFEKRTQAEIDLFDGIKYGPVTLNGKQIVSENIADQGGLTAGIEANKNEHGDMKELFENYARIWASKESPEIIKTIAAFDVHAPGPVRVNVQVQCQPEFYKAFNVQEGDGMWLDPAKRVVI
B5: Lactobacillus helveticus CNRZ32 PepO2 expressed as PpepO3:pepO2 translational fusion in Lactococcus lactis LM0230 (pSUW665) (enzyme)
chain: B4 chain
modifications: PpepO3 start and BamHI junction residues
B6: Lactobacillus helveticus CNRZ32 endopeptidase PepF (protein)
chain: MAIPTRSEVPEDLKWDLTRIFKTDQDWENAFDKAKDDVAKLSELKGSLAKSGKDLYEGLTKILAVKRDVENIYVYATMSSDVDTSNSHYLGYVSRVQSLSNQFEATTSFINPEILSIPAEKFEQFKKDEPRLADYAHYLEMITNKRPHTLPAEEEKIIADAGDAMSVSENTFNVLTNSDMEYGYVQDEDGNMEQLSNGLYSLLIQSQNRDVRKGAFNTLYASYGQFQNSLASTLSGVVKKHNYNARMHKYDSAREAALADNGVPVEVYDTLIKEVDSHLDLLHRYVALRKKILGLKDLQMWDMYVPLTGKPALSYNFEEAKKVAKEAMKPLGEDYLKHVDYIFNNRVIDPVESKGKVTGAYSGGAYDTDPYELLNWEDNIDSLYTLVHETGHSVHSWYTRHSQPYIYGNYPIFVAEIASTTNENILTEYFLDHITDPKTRAFILNHYLDSFKGTLFRQTQFAVFEQFIHEADAKGEPLTADILDDVYGQINQHYYGDSVEPGGDIALEWSRIPHFYYNFYVYQYATGFAAATALANKVVHGSQADRDAYLGYLKSGSSDYPTEIMKRAGVDMTKPDYLKDAFKTFEKRLNEFESLIGK

Experiments:
[1] = tested on: T1, αS1-casein (f1-9)
[2] = molecular target: T2, αS1-casein (f1-9)
[3] = molecular target: T3, β-casein (f193-209)
[4] = tested on: T4, β-casein (f193-209); remark: listed apart in the source

| Protein | Specific activity (Lc. lactis CFE), Cheddar cheese serum [1] | Specific activity (Lc. lactis CFE), defined peptide mix [1] | Specific activity (Lc. lactis CFE), individual peptide reaction [1] | relative activity in the defined peptide mix [1] | Specific activity (E. coli CFE) (nmoles substrate hydrolyzed/h/mg protein) [2] | Specific activity (E. coli CFE, control subtracted) (nmoles substrate hydrolyzed/h/mg protein) [2] | Specific activity (E. coli CFE) (nmoles substrate hydrolyzed/h/mg protein) [3] | Specific activity (E. coli CFE, control subtracted) (nmoles substrate hydrolyzed/h/mg protein) [3] | other results |
| --- | --- | --- | --- | --- | --- | --- | --- | --- | --- |
| B1 | 31 (17)^c, C | 120 (7)^a, B | 190 (14)^a, A | PepE had highest activity towards αS1-CN (f1-9) and αS1-CN (f1-6) |  |  |  |  |  |
| B2 |  |  |  |  | 79 | 85 | 88 | 88 | Specific activity (Lc. lactis CFE), Cheddar cheese serum [2]: 63 (25)^b, A; Specific activity (Lc. lactis CFE), defined peptide mix [2]: 38 (9.0)^c, A; Specific activity (Lc. lactis CFE), individual peptide reaction [2]: 41 (19)^b, A; Specific activity (Lc. lactis CFE), Cheddar cheese serum [3]: 61 (23)^b, A; Specific activity (Lc. lactis CFE), defined peptide mix [3]: 40 (6.0)^a, B; Specific activity (Lc. lactis CFE), single peptide reaction [3]: 81 (7.0)^a, A; hydrolysis in spiked Cheddar cheese serum (RP-HPLC) [3]: hydrolyzed completely within 12 hours |
| B3 |  |  |  |  |  |  |  |  | hydrolysis under simulated cheese ripening conditions [2]: No hydrolysis of either peptide was detected after incubation with CFE from E. coli transformed with pepE2; hydrolysis under simulated cheese ripening conditions [3]: No hydrolysis of either peptide was detected after incubation with CFE from E. coli transformed with pepE2 |
| B4 |  |  |  |  | 1900 | 3700 | 290 | 290 | hydrolysis detected by RP-HPLC (pH 6.5, 37° C.) [2]: significant hydrolysis of both β-CN(f193-209) and αs1-CN(f1-9) was detected with CFEs from E. coli DH5α (pSUW99); hydrolysis detected by RP-HPLC (pH 6.5, 37° C.) [3]: significant hydrolysis of both β-CN(f193-209) and αs1-CN(f1-9) was detected with CFEs from E. coli DH5α (pSUW99) |
| B5 | 150 (40)^a, B | 84 (20)^b, C | 240 (10)^a, A | PepO2 had highest activity towards peptides αS1-CN (f1-9), and αS1-CN (f1-13) |  |  |  |  | Specific activity (Lc. lactis CFE), Cheddar cheese serum [4]: 120 (32)^a, A; Specific activity (Lc. lactis CFE), defined peptide mix [4]: 42 (10)^a, B; Specific activity (Lc. lactis CFE), single peptide reaction [4]: 64 (1.5)^a, B; hydrolysis in spiked Cheddar cheese serum (RP-HPLC) [4]: hydrolyzed completely within 12 hours |
| B6 |  |  |  |  |  |  | 14 | 14 | Specific activity (E. coli CFE) [2]: - |
